Numbering of substitutions follows the chain as printed. *1 amine or outer side, *2 acyl side, *3 side chain or, on linkers, in order; H or OH if unused. Where no end group is shown, it is not given here. Side-chain parts run from the residue outwards. [ ]: non-standard residue; d: D form. The star is where a group is joined. αMePhe(2-F) = C[C@](N)(Cc1ccccc1F)C(=O)O; γGlu = O=C(O)[C@H](CCC(=O)[*:2])N[*:1]; C14 diacid = O=C(O)CCCCCCCCCCCCC(=O)*; αMeY = C[C@](N)(Cc1ccc(O)cc1)C(=O)O; αMeL = CC(C)C[C@](C)(N)C(=O)O; Orn = NCCC[C@H](N)C(=O)O; AEEA = NCCOCCOCC(=O)O; Aib = CC(C)(N)C(=O)O
T1: human GIP receptor (human, UniProt P48546 22-466)
T1 construct: whole, on cells; also called hGIPR; human glucose-dependent insulinotropic polypeptide receptor
T1 sequence (looked up): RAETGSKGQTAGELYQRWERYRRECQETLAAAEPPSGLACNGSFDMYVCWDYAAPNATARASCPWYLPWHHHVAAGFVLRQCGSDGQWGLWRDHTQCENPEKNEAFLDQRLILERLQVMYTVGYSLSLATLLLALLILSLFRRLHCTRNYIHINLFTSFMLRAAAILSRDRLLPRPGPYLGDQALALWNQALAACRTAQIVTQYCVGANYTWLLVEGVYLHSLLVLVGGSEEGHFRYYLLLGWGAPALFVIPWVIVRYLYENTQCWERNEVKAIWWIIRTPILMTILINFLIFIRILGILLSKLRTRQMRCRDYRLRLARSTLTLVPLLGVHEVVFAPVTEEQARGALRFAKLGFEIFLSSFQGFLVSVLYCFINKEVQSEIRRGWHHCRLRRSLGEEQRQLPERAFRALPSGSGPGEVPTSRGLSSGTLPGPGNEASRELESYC

B1: Y-Aib-EGT-αMeF(2F)-TSDK((2-[2-(2-Amino-ethoxy)-ethoxy]-acetyl)2-(γ-Glu)-CO-(CH2)12-CO2H)SI-αMeL-LD-Orn-K((2-[2-(2-Amino-ethoxy)-ethoxy]-acetyl)2-(γ-Glu)-CO-(CH2 … (peptide)
peptide: YXEGTXTSDKSIXLDXKAQXEFIXXLIEGGPSSGAPPPS
modifications: Aib2, αMeF(2F)6, K10(Z1), αMeL13, Orn16, K17(Z1), Aib20, D-Glu24, αMeY25, C-term NH2; Z1=AEEA2-(γ-Glu)-CO-(CH2)12-CO2H
B2: Y-Aib-EGT-αMeF(2F)-TSD-4Pal-SI-αMeL-LD-Orn-K((2-[2-(2-Amino-ethoxy)-ethoxy]-acetyl)2-(γ-Glu)-CO-(CH2)12-CO2H)AQ-Aib-E-3FPhe-I-(D-Glu)-αMeY-LIEGGK((2-[2-(2-Amino … (peptide)
peptide: B1 peptide with K10X, F22X, P31K
modifications: Aib2, αMeF(2F)6, 4Pal10, αMeL13, Orn16, K17(Z1), Aib20, 3FPhe22, D-Glu24, αMeY25, K31(Z1), C-term NH2; Z1=AEEA2-(γ-Glu)-CO-(CH2)12-CO2H
B3: Y-Aib-EGT-αMeF(2F)-TSD-4Pal-SI-αMeL-LD-Orn-K((2-[2-(2-Amino-ethoxy)-ethoxy]-acetyl)2-(γ-Glu)-CO-(CH2)12-CO2H)AQ-Aib-EFI-(D-Glu)-αMeY-LIEGGP S SGAPPP … (peptide)
peptide: YXEGTXTSDXSIXLDXKAQXEFIXXLIEGGPSSGAPPPSK
modifications: Aib2, αMeF(2F)6, 4Pal10, αMeL13, Orn16, K17(Z1), Aib20, D-Glu24, αMeY25, K40(Z1), C-term NH2; Z1=AEEA2-(γ-Glu)-CO-(CH2)12-CO2H
B4: Y-Aib-EGT-αMeF(2F)-TSD-4Pal-Aib-I-αMeL-LD-Orn-K((2-[2-(2-Amino-ethoxy)-ethoxy]-acetyl)-(γ-Glu)-CO-(CH2)12-CO2H)AQ-Aib-EFI-(D-Glu)-αMeY-LIEGGPSSGAPPPSK((2-[2-(2- … (peptide)
peptide: B3 peptide with S11X
modifications: Aib2, αMeF(2F)6, 4Pal10, Aib11, αMeL13, Orn16, K17(Z1), Aib20, D-Glu24, αMeY25, K40(Z1), C-term NH2; Z1=AEEA-(γ-Glu)-CO-(CH2)12-CO2H
B5: Y-Aib-EGT-αMeF(2F)-TSD-4Pal-Aib-I-αMeL-LD-Orn-QAQ-Aib-K((2-[2-(2-Amino-ethoxy)-ethoxy]-acetyl)2-(γ-Glu)-CO-(CH2)12-CO2H)FI-(D-Glu)-αMeY-LIEGGPSSGAPPPSK((2-[2-(2 … (peptide)
peptide: B3 peptide with S11X, K17Q, E21K
modifications: Aib2, αMeF(2F)6, 4Pal10, Aib11, αMeL13, Orn16, Aib20, K21(Z1), D-Glu24, αMeY25, K40(Z1), C-term NH2; Z1=AEEA2-(γ-Glu)-CO-(CH2)12-CO2H
B6: Y-Aib-EGT-αMeF(2F)-TSD-4Pal-Aib-I-αMeL-LD-Orn-QAQ-Aib-K((2-[2-(2-Amino-ethoxy)-ethoxy]-acetyl)2-(γ-Glu)-CO-(CH2)12-CO2H)FI-(D-Glu)-αMeY-LIK((2-[2-(2-Amino-ethox … (peptide)
peptide: YXEGTXTSDXXIXLDXQAQXKFIXXLIKGGPSSGAPPPS
modifications: Aib2, αMeF(2F)6, 4Pal10, Aib11, αMeL13, Orn16, Aib20, K21(Z1), D-Glu24, αMeY25, K28(Z1), C-term NH2; Z1=AEEA2-(γ-Glu)-CO-(CH2)12-CO2H
B7: Y-Aib-EGT-αMeF(2F)-TSD-4Pal-Aib-I-αMeL-LD-Orn-QAQ-Aib-EFIK((2-[2-(2-Amino-ethoxy)-ethoxy]-acetyl)2-(γ-Glu)-CO-(CH2)12-CO2H)-αMeY-LIK((2-[2-(2-Amino-ethoxy)-etho … (peptide)
peptide: B6 peptide with K21E, X24K
modifications: Aib2, αMeF(2F)6, 4Pal10, Aib11, αMeL13, Orn16, Aib20, K24(Z1), αMeY25, K28(Z1), C-term NH2; Z1=AEEA2-(γ-Glu)-CO-(CH2)12-CO2H
B8: Y-Aib-EGT-αMeF(2F)-TSDY-Aib-I-αMeL-LD-Orn-QAQ-Aib-Orn-FIK((2-[2-(2-Amino-ethoxy)-ethoxy]-acetyl)3-(γ-Glu)-CO-(CH2)12-CO2H)-αMeY-LIK((2-[2-(2-Amino-ethoxy)-ethox … (peptide)
peptide: B6 peptide with X10Y, K21X, X24K
modifications: Aib2, αMeF(2F)6, Aib11, αMeL13, Orn16, Aib20, Orn21, K24(Z1), αMeY25, K28(Z1), C-term NH2; Z1=AEEA3-(γ-Glu)-CO-(CH2)12-CO2H
B9: Y-Aib-EGT-αMeF(2F)-TSD-4Pal-Aib-I-αMeL-LD-Orn-QAQ-Aib-EFIK((2-[2-(2-Amino-ethoxy)-ethoxy]-acetyl)3-(γ-Glu)-CO-(CH2)12-CO2H)-αMeY-LIK((2-[2-(2-Amino-ethoxy)-etho … (peptide)
peptide: B6 peptide with K21E, X24K
modifications: Aib2, αMeF(2F)6, 4Pal10, Aib11, αMeL13, Orn16, Aib20, K24(Z1), αMeY25, K28(Z1), C-term NH2; Z1=AEEA3-(γ-Glu)-CO-(CH2)12-CO2H
B10: Y-Aib-EGT-αMeF(2F)-TSD-4Pal-Aib-I-αMeL-LD-Orn-QAQ-Aib-Orn-FIK((2-[2-(2-Amino-ethoxy)-ethoxy]-acetyl)-(γ-Glu)-CO-(CH2)12-CO2H)-αMeY-LIK((2-[2-(2-Amino-ethoxy)-et … (peptide)
peptide: B6 peptide with K21X, X24K
modifications: Aib2, αMeF(2F)6, 4Pal10, Aib11, αMeL13, Orn16, Aib20, Orn21, K24(Z1), αMeY25, K28(Z1), C-term NH2; Z1=AEEA-(γ-Glu)-CO-(CH2)12-CO2H
B11: Y-Aib-EGT-αMeF(2F)-TSDV-Aib-I-αMeL-LD-Orn-K((2-[2-(2-Amino-ethoxy)-ethoxy]-acetyl)2-(γ-Glu)-CO-(CH2)12-CO2H)AQ-Aib-EFI-(D-Glu)-αMeY-LIEGGK((2-[2-(2-Amino-ethoxy … (peptide)
peptide: Y[Aib]EGT[αMePhe(2-F)]TSDV[Aib]I[αMeL]LD[Orn]K([AEEA-AEEA-γGlu-C14 diacid])AQ[Aib]EFI[dE][αMeY]LIEGGK([AEEA-AEEA-γGlu-C14 diacid])SSGAPPPS-NH2
modifications: N-terminus assumed
SMILES: CC[C@H](C)[C@H](NC(=O)[C@H](CC(C)C)NC(=O)[C@](C)(Cc1ccc(O)cc1)NC(=O)[C@@H](CCC(=O)O)NC(=O)[C@@H](NC(=O)[C@H](Cc1ccccc1)NC(=O)[C@H](CCC(=O)O)NC(=O)C(C)(C)NC(=O)[C@H](CCC(N)=O)NC(=O)[C@H](C)NC(=O)[C@H](CCCCNC(=O)COCCOCCNC(=O)COCCOCCNC(=O)CC[C@H](NC(=O)CCCCCCCCCCCCC(=O)O)C(=O)O)NC(=O)[C@H](CCCN)NC(=O)[C@H](CC(=O)O)NC(=O)[C@H](CC(C)C)NC(=O)[C@](C)(CC(C)C)NC(=O)[C@@H](NC(=O)C(C)(C)NC(=O)[C@@H](NC(=O)[C@H](CC(=O)O)NC(=O)[C@H](CO)NC(=O)[C@@H](NC(=O)[C@](C)(Cc1ccccc1F)NC(=O)[C@@H](NC(=O)CNC(=O)[C@H](CCC(=O)O)NC(=O)C(C)(C)NC(=O)[C@@H](N)Cc1ccc(O)cc1)[C@@H](C)O)[C@@H](C)O)C(C)C)[C@@H](C)CC)[C@@H](C)CC)C(=O)N[C@@H](CCC(=O)O)C(=O)NCC(=O)NCC(=O)N[C@@H](CCCCNC(=O)COCCOCCNC(=O)COCCOCCNC(=O)CC[C@H](NC(=O)CCCCCCCCCCCCC(=O)O)C(=O)O)C(=O)N[C@@H](CO)C(=O)N[C@@H](CO)C(=O)NCC(=O)N[C@@H](C)C(=O)N1CCC[C@H]1C(=O)N1CCC[C@H]1C(=O)N1CCC[C@H]1C(=O)N[C@@H](CO)C(N)=O
B12: Y-Aib-EGT-αMeF(2F)-TSDV-αMeS-I-αMeL-LD-Orn-K((2-[2-(2-Amino-ethoxy)-ethoxy]-acetyl)2-(γ-Glu)-CO-(CH2)12-CO2H)AQ-Aib-EFI-(D-Glu)-αMeY-LIEGGK((2-[2-(2-Amino-ethox … (peptide)
peptide: B1 peptide with K10V, S11X, P31K
modifications: Aib2, αMeF(2F)6, αMeS11, αMeL13, Orn16, K17(Z1), Aib20, D-Glu24, αMeY25, K31(Z1), C-term NH2; Z1=AEEA2-(γ-Glu)-CO-(CH2)12-CO2H

Key:
human GLP-1 receptor = target: T2, human GLP-1 receptor (human, UniProt P43220 24-463); assay: SPA competition vs [125I]-GLP-1, hGLP-1R membranes
T2 construct: whole, on cells; also called hGLP-1R; human glucagon-like peptide-1 receptor
Protocol: The binding buffer contains 25 mM HEPES, pH 7.4, 2.5 mM CaCl₂, 1 mM MgCl₂, 0.1% (w/v) bacitracin, 0.003% (w/v) TWEEN®-20, and Roche Complete™ Protease Inhibitors without EDTA.
(§1) Data are analyzed using four-parameter (curve maximum, curve minimum, IC₅₀, Hill slope) nonlinear regression routines (Genedata Screener, version 12.0.4, Genedata AG, Basal, Switzerland). […] Values for Kᵢ are reported as the geometric mean, with error expressed as the standard error of the mean (SEM) and n is equal to the number of independent replicates (determined in assays performed on different days). Geometric Means are calculated as follows: […]

human GIP receptor = target: T1, human GIP receptor; assay: SPA competition vs [125I]-GIP, hGIPR membranes
Protocol: The binding buffer contains 25 mM HEPES, pH 7.4, 2.5 mM CaCl₂, 1 mM MgCl₂, 0.1% (w/v) bacitracin, 0.003% (w/v) TWEEN®-20, and Roche Complete™ Protease Inhibitors without EDTA. […] Plates are sealed and mixed on a plate shaker (setting 6) for 1 minute and read with a PerkinElmer Trilux MicroBeta® scintillation counter after 2.5 to 12 hours of incubation/settling time at room temperature.
as §1

| Binder | Ki (human GLP-1 receptor) [nM] | Ki (human GIP receptor) [nM] |
| --- | --- | --- |
| B1 | 6.48 | 0.378 |
| B2 | 1.52 | 0.161 |
| B3 | 3.13 | 0.0807 |
| B4 | 2.07 | 0.091 |
| B5 | 0.947 | 0.0912 |
| B6 | 0.964 | 0.064 |
| B7 | 1.33 | 0.0375 |
| B8 | 0.246 | 0.0249 |
| B9 | 0.433 | 0.0528 |
| B10 | 0.224 | 0.023 |
| B11 | 1.26 | 0.126 |
| B12 | 1.17 | 0.161 |

Source: patent US20230265151A1, “GIP/GLP1 CO-AGONIST COMPOUNDS” (priority 2020, published 2023)
